Assay results reported in patent publication US20070160576A1, “IL-17A/F heterologous polypeptides and therapeutic uses thereof” (Genentech, Inc., priority 2001, published 2007).

Tests used:
[1] = target: human IL-17 receptor (IL-17R, PRO1) (Homo sapiens, UniProt Q96F46); test: Receptor/ligand interaction screening assay (immunoadhesin); format: binding
Method: (§1) In general, the assay is performed as follows. A PRO polypeptide of the present invention suspected of being a ligand for a receptor is expressed as a fusion protein containing the Fc domain of human IgG (an immunoadhesin). Receptor-ligand binding is detected by allowing interaction of the immunoadhesin polypeptide with cells (e.g. Cos cells) expressing candidate PRO polypeptide receptors and visualization of bound immunoadhesin with fluorescent reagents directed toward the Fc fusion domain and examination by microscope. Cells expressing candidate receptors are produced by transient transfection, in parallel, of defined subsets of a library of cDNA expression vectors encoding PRO polypeptides that may function as receptor molecules. Cells are then incubated for 1 hour in the presence of the PRO polypeptide immunoadhesin being tested for possible receptor binding. The cells are then washed and fixed with paraformaldehyde. The cells are then incubated with fluorescent conjugated antibody directed against the Fc portion of the PRO polypeptide immunoadhesin (e.g. FITC conjugated goat anti-human-Fc antibody). The cells are then washed again and examined by microscope. A positive interaction is judged by the presence of fluorescent labeling of cells transfected with cDNA encoding a particular PRO polypeptide receptor or pool of receptors and an absence of similar fluorescent labeling of similarly prepared cells that have been transfected with other cDNA or pools of cDNA. If a defined pool of cDNA expression vectors is judged to be positive for interaction with a PRO polypeptide immunoadhesin, the individual cDNA species that comprise the pool are tested individually (the pool is “broken down”) to determine the specific cDNA that encodes a receptor able to interact with the PRO polypeptide immunoadhesin.
(§2) In another embodiment of this assay, an epitope-tagged potential ligand PRO polypeptide (e.g., 8 histidine “His” tag) is allowed to interact with a panel of potential receptor PRO polypeptide molecules that have been expressed as fusions with the Fc domain of human IgG (immunoadhesins). Following a 1 hour co-incubation with the epitope tagged PRO polypeptide, the candidate receptors are each immunoprecipitated with protein A beads and the beads are washed. Potential ligand interaction is determined by Western blot analysis of the immunoprecipitated complexes with antibody directed towards the epitope tag. An interaction is judged to occur if a band of the anticipated molecular weight of the epitope tagged protein is observed in the Western blot analysis with a candidate receptor, but is not observed to occur with the other members of the panel of potential receptors.

[2] = target: T1, PRO5801 (human IL-17RH1 receptor) (Homo sapiens, UniProt Q9NRM6); test: as above; format: binding
T1 sequence (Q9NRM6 18-502): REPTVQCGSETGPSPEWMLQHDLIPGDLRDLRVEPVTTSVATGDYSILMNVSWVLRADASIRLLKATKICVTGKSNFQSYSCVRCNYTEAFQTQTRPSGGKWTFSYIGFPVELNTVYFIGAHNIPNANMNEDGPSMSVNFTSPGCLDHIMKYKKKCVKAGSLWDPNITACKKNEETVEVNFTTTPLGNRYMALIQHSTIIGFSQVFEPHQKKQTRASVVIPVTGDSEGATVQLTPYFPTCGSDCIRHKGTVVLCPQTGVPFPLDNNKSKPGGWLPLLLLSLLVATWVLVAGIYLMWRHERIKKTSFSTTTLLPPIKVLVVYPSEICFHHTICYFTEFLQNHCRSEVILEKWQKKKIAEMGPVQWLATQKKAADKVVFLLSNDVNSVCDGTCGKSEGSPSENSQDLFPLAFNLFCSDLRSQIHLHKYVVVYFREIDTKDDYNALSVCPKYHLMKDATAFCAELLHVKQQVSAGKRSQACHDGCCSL
Method: as §1, §2

[3] = target: T2, PRO5801 (human IL-17RH1 receptor) as tested in the receptor/ligand screen (human, UniProt Q9NRM6 18-292, limits assumed); test: receptor/ligand screen (immunoadhesin on transfected cells or co-immunoprecipitation)
T2 sequence (looked up): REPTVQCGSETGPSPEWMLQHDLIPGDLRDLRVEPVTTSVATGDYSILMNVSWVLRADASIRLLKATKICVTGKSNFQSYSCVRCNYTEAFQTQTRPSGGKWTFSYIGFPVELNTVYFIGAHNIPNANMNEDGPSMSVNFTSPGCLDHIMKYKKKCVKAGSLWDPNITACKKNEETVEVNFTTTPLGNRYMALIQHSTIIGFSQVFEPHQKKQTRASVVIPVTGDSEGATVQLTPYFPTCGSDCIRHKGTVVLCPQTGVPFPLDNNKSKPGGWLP
From the text: (§3) A PRO polypeptide of the present invention suspected of being a ligand for a receptor is expressed as a fusion protein containing the Fc domain of human IgG (an immunoadhesin). Receptor-ligand binding is detected by allowing interaction of the immunoadhesin polypeptide with cells (e.g. Cos cells) expressing candidate PRO polypeptide receptors and visualization of bound immunoadhesin with fluorescent reagents directed toward the Fc fusion domain and examination by microscope. Cells expressing candidate receptors are produced by transient transfection, in parallel, of defined subsets of a library of cDNA expression vectors encoding PRO polypeptides that may function as receptor molecules. Cells are then incubated for 1 hour in the presence of the PRO polypeptide immunoadhesin being tested for possible receptor binding. The cells are then washed and fixed with paraformaldehyde. […]
(§4) In another embodiment of this assay, an epitope-tagged potential ligand PRO polypeptide (e.g., 8 histidine “His” tag) is allowed to interact with a panel of potential receptor PRO polypeptide molecules that have been expressed as fusions with the Fc domain of human IgG (immunoadhesins). […] Potential ligand interaction is determined by Western blot analysis of the immunoprecipitated complexes with antibody directed towards the epitope tag.

[4] = target: T3, human IL-17 receptor (IL-17R, PRO1) as tested in the receptor/ligand screen (human, UniProt Q96F46 33-320, limits assumed); test: as above
T3 construct: also called IL-7R (as misprinted)
From the text: as §3, §4

B1: PRO1031 (human IL-17B ligand) (ligand, UniProt Q9UHF5 21-180, looked up)
chain: QPRSPKSKRKGQGRPGPLAPGPHQVPLDLVSRMKPYARMEEYERNIEEMVAQLRNSSELAQRKCEVNLQLWMSNKRSLSPWGYSINHDPSRIPVDLPEARCLCLGCVNPFTMQEDRSMVSVPVFSQVPVRRRLCPPPPRTGPCRQRAVMETIAVGCTCIF
[1]
  binding to human IL-17 receptor (IL-17R, PRO1): do not bind
[2]
  binding to IL-17RH1 receptor (PRO5801): binds to
[3]
  binding result: binds
[4]
  binding result: no binding
